Experimental data: patent publication US12544428B2, “Controlled-release CNP agonists with reduced side-effects” (ASCENDIS PHARMA GROWTH DISORDERS A/S, priority 2016, dated 2026)

Experiments:
NPR-B receptor = target: T1, NPR-B receptor (Mus musculus, UniProt Q6VVW5); test: Functional cGMP stimulation in NIH-3T3 cells with CNP variants; type: cell-based, murine; settings: residual NPR-B activity vs non-PEGylated CNP-38, cGMP
T1 construct: These cells express endogenously the NPR-B receptor on the cell surface; endogenous in cells; host or cells: NIH-3T3 (murine embryo fibroblast)
T1 sequence (Q6VVW5 23-1047 limits assumed): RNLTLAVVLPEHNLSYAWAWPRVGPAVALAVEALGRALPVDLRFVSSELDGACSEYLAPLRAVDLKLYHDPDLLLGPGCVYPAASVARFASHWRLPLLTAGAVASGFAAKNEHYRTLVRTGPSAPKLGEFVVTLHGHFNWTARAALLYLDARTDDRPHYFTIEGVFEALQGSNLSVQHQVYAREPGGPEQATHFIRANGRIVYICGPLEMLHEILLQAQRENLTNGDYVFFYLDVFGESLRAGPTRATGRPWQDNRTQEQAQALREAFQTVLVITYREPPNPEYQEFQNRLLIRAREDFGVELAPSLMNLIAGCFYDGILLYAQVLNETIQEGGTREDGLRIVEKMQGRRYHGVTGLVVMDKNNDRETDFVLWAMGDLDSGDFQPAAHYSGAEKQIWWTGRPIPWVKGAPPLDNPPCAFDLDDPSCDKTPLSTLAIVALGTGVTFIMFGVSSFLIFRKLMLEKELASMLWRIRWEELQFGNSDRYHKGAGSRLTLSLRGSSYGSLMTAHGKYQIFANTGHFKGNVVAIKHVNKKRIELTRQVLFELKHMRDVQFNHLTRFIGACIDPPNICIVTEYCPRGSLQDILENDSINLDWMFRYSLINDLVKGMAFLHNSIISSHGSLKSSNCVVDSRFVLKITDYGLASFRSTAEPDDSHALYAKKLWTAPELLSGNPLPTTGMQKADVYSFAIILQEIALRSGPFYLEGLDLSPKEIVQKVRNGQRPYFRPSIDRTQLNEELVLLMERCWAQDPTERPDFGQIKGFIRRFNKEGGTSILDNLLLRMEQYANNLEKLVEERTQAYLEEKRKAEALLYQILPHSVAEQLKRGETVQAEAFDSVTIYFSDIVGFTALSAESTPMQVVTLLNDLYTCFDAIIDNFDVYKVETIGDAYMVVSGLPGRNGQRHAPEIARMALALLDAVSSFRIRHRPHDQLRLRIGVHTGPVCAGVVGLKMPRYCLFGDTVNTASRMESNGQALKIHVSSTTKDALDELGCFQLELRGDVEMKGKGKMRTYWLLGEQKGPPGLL
Experimental: As used herein “EC50” with regard to controlled-release CNP agonist and CNP agonist refers to the concentration of controlled-release CNP agonist and CNP agonist with which a half-maximum cGMP production of NPR-B is elicited. NPR-B activity in the form of its EC50 of the controlled-release CNP agonist, of the released CNP agonist and of CNP-22 is measured by cultivating NIH-3T3 (Murine Embryo Fibroblast cell line) cells which express NPR-B on their cell surface, incubating the cells with the controlled-release CNP agonist, the corresponding released CNP agonist or CNP-22, respectively, and determining the intracellular production of the second messenger cGMP with a standard cGMP assay. In particular the assay is performed as follows: • (1) murine NIH-3T3 cells expressing endogenous NPR-B are cultivated in DMEM F-12 medium with 5% FBS and 5 mM glutamine at 37° C. and 5% CO2; • (2) for each assay 50,000 cells are resuspended in Dulbecco's PBS with IBMX and incubated with either the controlled-release CNP agonist, the corresponding released CNP agonist or CNP-22; each in different concentrations; • (3) after incubating for 30 min at 37° C. and 5% CO2, the cells are lysed and cGMP levels are determined; and • (4) generating an EC50 value from the determined cGMP levels.
Functional activity of CNP variants were determined in a cell-based assay with NIH-3T3 cells (Murine Embryo Fibroblast cell line). These cells express endogenously the NPR-B receptor on the cell surface. Stimulation of the NPR-B receptor with CNP leads to intracellular production of the second messenger cGMP which is detected with a commercially available cGMP assay. NIH-3T3 cells were routinely cultured in DMEM F-12 medium with 5% FBS and 5 mM glutamine at 37° C. and 5% CO2. For each assay, 50,000 cells were resuspended in stimulation buffer (Dulbecco's PBS with IBMX) and incubated with the CNP variants in different concentrations. CNP (dilutions were made in PBS with 0.2% BSA). After incubation of 30 min at 37° C. and 5% CO2, the cells were lyzed and cGMP levels were determined with a commercially available cGMP TR-FRET assay (Cisbio, cGMP kit, Cat. No. 62GM2PEB). PEGylated CNP variants were always characterized in comparison with the non-PEGylated version in the same experiment batch. If possible, evaluation of the residual activity was done via the relative EC50-parameter of the resulting dose-response curve (restricted model with common slope).
11i was incubated under physiological conditions (1 mg CNP-38 eq/mL), as described in Example 20. After 7 d, released CNP-38 was isolated by RP-HPLC and analyzed for bioactivity as described in Example 21.

NPR-C = target: T2, NPR-C (Homo sapiens, UniProt P17342); test: NPR-C affinity assay; type: binding; settings: residual NPR-C affinity, NPR-C expressing Hek293 cells, competition with fluorescein-labelled CNP 27d
T2 construct: expressed in transfected cells; host or cells: Hek293, lentiviral transduction, CMV promoter, puromycin selection
T2 sequence (P17342 27-541): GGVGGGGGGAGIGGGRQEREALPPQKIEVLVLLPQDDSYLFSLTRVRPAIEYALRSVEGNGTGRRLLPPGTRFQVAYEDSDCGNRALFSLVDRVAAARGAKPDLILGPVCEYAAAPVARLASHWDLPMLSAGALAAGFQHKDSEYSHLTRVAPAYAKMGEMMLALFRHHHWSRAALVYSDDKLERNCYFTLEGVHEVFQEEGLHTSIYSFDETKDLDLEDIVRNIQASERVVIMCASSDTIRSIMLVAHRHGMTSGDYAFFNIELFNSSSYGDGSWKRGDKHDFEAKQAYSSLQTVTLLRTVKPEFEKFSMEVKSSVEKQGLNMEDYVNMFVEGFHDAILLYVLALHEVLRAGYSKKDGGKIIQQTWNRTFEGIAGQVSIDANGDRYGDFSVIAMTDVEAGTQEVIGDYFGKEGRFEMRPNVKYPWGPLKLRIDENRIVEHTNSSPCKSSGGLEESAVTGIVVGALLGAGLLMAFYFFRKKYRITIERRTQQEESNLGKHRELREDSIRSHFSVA

[1] = 0.146 mg CNP-38 eq/kg
Experimental: Plasma total CNP-38 concentrations (conjugated and released CNP-38) were determined by quantification of the N-terminal signature peptide (sequence: […]) and C-terminal signature peptide (sequence: […]) after tryptic digestion.
LC-MS analysis was carried out by using an Agilent 1290 UPLC coupled to an Agilent 6550 iFunnel Q-TOF mass spectrometer via an ESI probe. Chromatography was performed on a Waters Acquity BEH300 C18 analytical column (50×2.1 mm I.D., 1.7 μm particle size) with pre-filter at a flow rate of 0.25 mL/min (T=25° C.). Water (UPLC grade) containing 0.2% formic acid (v/v) was used as mobile phase A and acetonitrile (UPLC grade) with 0.2% formic acid as mobile phase B. The gradient system comprised a short isocratic step at the initial parameters of 0.1% B for 3.0 min followed by a linear increase from 0.1% B to 16% B in 17 min. Mass analysis was performed in the single ion monitoring (SIM) mode, monitoring the ions m/z 482.75 [M+2H]^2+ (N-terminal) and m/z 824.36 [M+H]^1+ (C-terminal). As internal standard deuterated CNP-38 peptide was used.
Calibration standards of CNP-38 conjugate in blank plasma were prepared as follows: The thawed Li-heparin cynomolgous plasma was first homogenized, then centrifuged for 5 minutes. […] These solutions were used for the generation of a calibration curve.
For sample preparation, protein precipitation was carried out by addition of 300 μL of pre-cooled (0° C.) methanol to 100 μL of the plasma sample. 200 μL of the supernatant were transferred into a new well-plate and evaporated to dryness (under a gentle nitrogen stream at 35° C.). 100 μL of reconstitution solvent (Thermo digestion buffer, order number 60109-101, Thermo Fisher Scientific GmbH, Dreieich, Germany) were used to dissolve the residue. 20 μg of trypsin (order number V5111, Promega GmbH, Mannheim, Germany) were dissolved in 20 μL of 10 mM acetic acid. 2 μL of the trypsin solution were added to each cavity.
After 4 hours incubation at 37° C. (water bath), 5 μL of a 0.5 M TCEP solution were added to each cavity and incubated again for 5 min at 96° C. After the samples had cooled to room temperature, 3 μL acetonitrile were added. The eluates were transferred into vials. 10 μL were injected into the UPLC-MS system.
Male cynomolgus monkeys (2-4 years old, 3-5 kg) received either a single subcutaneous administration (n=3 animals) of compound 10f or a single subcutaneous (n=3 animals) administration of 11i at a dose of 0.146 mg CNP-38 eq/kg. Blood samples were collected up to 168 h post dose, and plasma was generated. Plasma levels of total CNP-38 content were analyzed as described in example 24. In order to analyze the plasma content of free CNP-38, the blood samples were acidified after withdrawal by adding 20 vol % of 0.5 M sodium citrate buffer pH 4 to stop further CNP-38 release from the conjugate. Free CNP-38 levels in plasma can e.g. be determined by ELISA using a CNP antibody that binds to the ring region of CNP, as described in the literature (U.S. Pat. No. 8,377,884 B2), or by LC-MS/MS.

[2] = Evaluation of cardiovascular effects in the conscious telemetered mouse (subcutaneous administration); type: in vivo, Crl:CD1(ICR) mice; settings: for MAP: mean ± SD, n = 4
Source text: The purpose of this study was to evaluate the haemodynamic side effects of 11i at dose level equivalent to a CNP-38 dose level eliciting haemodynamic side effects (decrease in blood pressure) in the telemetered mouse.
Male Crl:CD1(ICR) mice (age range 8-13 weeks and body weight range 27.3-35.6 g at start of dosing) were surgically implanted with a TA11PA-C10 telemetry transmitter (Data Sciences International (DSI)) in the carotid artery. The body of the transmitter was placed subcutaneously in the lateral flank of the mouse. The mice were dosed subcutaneously in a latin square crossover design with at least 72 hours between dosing occasions. Mice were dosed with 1) vehicle (10 mM succinate, 46.0 g/L mannitol, pH 4.00), 2) CNP-38 (800 μg CNP-38/kg, 10 mM succinate, 46.0 g/L mannitol, pH 4.00) or 3) 11i (800 μg CNP-38 eq/kg, 10 mM succinate, 46.0 g/L mannitol, pH 4.00). At least four mice were included at each dose level. Blood pressure (systolic (SAP), diastolic (DAP) and mean (MAP) and heart rate (HR, derived from blood pressure), were recorded using a digital data capture system linked with a DSITM Ponemah data acquisition and analysis system. The capture system allowed recording of the cardiovascular parameters whilst the mice were in individual cages. On the day of each test session the animals were weighed and a predose recording was performed for at least 60 min prior to dosing. Each mouse was returned to the home cage and the cardiovascular parameters were recorded for approximately 48 hours postdose. Blood pressure and HR were reported at the following time points: −30, −20, −10, 5, 15 and 30 min postdose and 1, 2, 6, 12, 18, 24, 30, 36, 42 and 48 hours postdose. Each time point was presented as the average value of five minute's recording prior to the time point. The monitoring period was selected to cover exposure to the test items both prior to and after Tmax.

| Substance | EC50 compound/EC50 CNP-38 (NPR-B receptor) | IC50 of PEGylated CNP-38/IC50 CNP-38 (NPR-C) | dose site reactions ([1]; single sc) | terminal half life ([1]; single sc, C-terminal and N-terminal peptide) | total CNP-38 plasma level after 168 h ([1]; single sc, C-terminal peptide) | total CNP-38 tmax ([1]; single subcutaneous administration) | HR ([2]; 800 μg CNP-38 (eq)/kg sc) | MAP versus vehicle at the remaining ten time points ([2]; 1 to 48 hours postdose, 800 μg CNP-38 (eq)/kg sc) | change in MAP compared to predose ([2]; 5, 15 and 30 min post dose, 800 μg CNP-38 (eq)/kg sc, CNP-38: 3 of 4 animals) | MAP ([2]; 5 min post dose, 800 μg CNP-38 (eq)/kg sc) | MAP ([2]; 15 min post dose, 800 μg CNP-38 (eq)/kg sc) | MAP ([2]; 30 min post dose, 800 μg CNP-38 (eq)/kg sc) | MAP ([2]; predose, 800 μg CNP-38 (eq)/kg sc) | effect on blood pressure ([2]; subcutaneous, dosage equivalent to CNP-38 800 μg/kg) |
| --- | --- | --- | --- | --- | --- | --- | --- | --- | --- | --- | --- | --- | --- | --- |
| Permanent N-Terminal CNP-38 PEG 5 kDa Conjugate [Compound 15e] | >5 | 0.53 | – | – | – | – | – | – | – | – | – | – | – | – |
| Reversible Lys26 CNP-38 PEG4×10 kDa Conjugate [Compound 11i] | – | – | No dose site reactions were observed | 72 to 96 h | ca. 30 % of cmax | 24 h | not impacted | no difference in MAP | same physiological increase in MAP | 122.8 ± 5.9 mmHg | 121.5 ± 7.5 mmHg | 111.5 ± 13.7 mmHg | 106.4 ± 10.7 mmHg | did not decrease blood pressure |
